What was measured:
[1] = biological target: T1, KpOptS (Klebsiella pneumoniae, UniProt A0A2G9LI54); experiment: HPLC and LC-MS product analysis; type: biochemical; details: 100 μM OptS, 1 mM MnCl2, 10 mM MgSO4, pH 7.4, 100 mM NaCl
T1 sequence (A0A2G9LI54 1-119): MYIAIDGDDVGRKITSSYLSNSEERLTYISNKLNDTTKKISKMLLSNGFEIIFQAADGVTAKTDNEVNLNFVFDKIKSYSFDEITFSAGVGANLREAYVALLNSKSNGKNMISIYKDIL

[2] = biological target: OptS from Klebsiella pneumoniae strain KP67 (Klebsiella pneumoniae strain KP67); experiment: SEC
[3] = biological target: OptS from Klebsiella pneumoniae strain KP67 (Klebsiella pneumoniae strain KP67); experiment: SEC; remark: listed apart in the source
[4] = biological target: OptS from Klebsiella pneumoniae strain KP67 (Klebsiella pneumoniae strain KP67); experiment: crystal structure

Compound | HPLC and LC-MS product analysis [1] | stoichiometry N [2] | stoichiometry N [3] | stoichiometry N [4]
Nc1ncnc2c1ncn2[C@@H]1O[C@H](COP(=O)(O)OP(=O)(O)OP(=O)(O)O)[C@@H](O)[C@H]1O [ATP] | The largest abundance product observed was derived from ATP | – | – | –
OptS from Klebsiella pneumoniae strain KP67 (enzyme) | – | 4 | > 3 | 4

Reference: paper PMC11974786 (bioRxiv, 2025)
